Key:
[1] = molecular target: Cad11-12 truncated Bt-R1a cadherin expressed in S2 cells (Manduca sexta); assay: 125I-Cry1Ab saturation binding on S2 cell suspensions; reference Cad12
[2] = molecular target: Cad7-12 truncated Bt-R1a cadherin expressed in S2 cells (Manduca sexta); assay: 125I-Cry1Ab saturation binding on suspensions of S2 cells expressing the fragment; dissociation constant (Kcom)
[3] = molecular target: Cad12 truncated Bt-R1a cadherin expressed in S2 cells (Manduca sexta); assay: 125I-Cry1Ab saturation binding on suspensions of S2 cells expressing the fragment
[4] = molecular target: Cad7-12 truncated Bt-R1a cadherin expressed in S2 cells (Manduca sexta); assay: as above
[5] = molecular target: Cad11-12 truncated Bt-R1a cadherin expressed in S2 cells (Manduca sexta); assay: as above
[6] = molecular target: full length Bt-R1a cadherin expressed in Drosophila S2 cells (Manduca sexta); assay: 125I-Cry1Ab saturation binding on suspensions of S2 cells expressing full-length Bt-R1a; dissociation constant (Kcom)
[7] = molecular target: full length Bt-R1a cadherin expressed in Drosophila S2 cells (Manduca sexta); assay: 125I-Cry1Ab saturation binding on suspensions of S2 cells expressing full-length Bt-R1a

## Cry1Ab toxin (ligand)
[1]
  fold concentration of binding sites against Cad12: 3 fold
[2]
  Kd: 2.05 nM
[3]
  Bmax (concentration of receptors) (fmoles/mg protein): 1410
[4]
  Bmax (concentration of receptors) (fmoles/mg protein): 506
[5]
  Bmax (concentration of receptors) (fmoles/mg protein): 3320
[6]
  Kd: 3.55 nM
[7]
  Bmax (concentration of receptors) (fmoles/mg protein): 625
